Laboratory results: publication PMC4439124, “Hairy/Enhancer-of-Split MEGANE and Proneural MASH1 Factors Cooperate Synergistically in Midbrain GABAergic Neurogenesis” (PLoS ONE, 2015)

Biological target: T1, MGN (MEGANE), yeast two-hybrid fusion (mouse, UniProt Q7TS99 1-240)
T1 construct: The two Gal4 domains are alternatives: one fusion as bait (BD), another as prey (AD); also called Helt; BD-MGN; source: yeast two-hybrid fusion
T1 sequence (looked up): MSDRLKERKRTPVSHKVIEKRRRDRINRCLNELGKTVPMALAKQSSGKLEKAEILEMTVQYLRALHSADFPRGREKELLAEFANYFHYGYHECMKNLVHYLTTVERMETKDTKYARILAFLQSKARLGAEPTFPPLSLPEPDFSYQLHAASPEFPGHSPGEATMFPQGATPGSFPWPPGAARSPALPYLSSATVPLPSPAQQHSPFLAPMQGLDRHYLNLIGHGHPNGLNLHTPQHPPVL
Assay: two-hybrid; quantitative β-galactosidase assay on liquid cultures (X-gal; in parallel ONPG, absorbance at 420 nm), five independent transformants per pair, normalised against cell density and dilution
Details: partners not purified

fold β-galactosidase activity (strength of interaction) over the MASH1/MASH1 homodimer: 4 fold
fold β-galactosidase activity (strength of interaction) over the MGN/MGN homodimer: 4.4 fold
B1: MASH1, yeast two-hybrid fusion (natural protein, mouse, UniProt Q02067 1-231, looked up)
chain: MESSGKMESGAGQQPQPPQPFLPPAACFFATAAAAAAAAAAAAQSAQQQQPQAPPQQAPQLSPVADSQPSGGGHKSAAKQVKRQRSSSPELMRCKRRLNFSGFGYSLPQQQPAAVARRNERERNRVKLVNLGFATLREHVPNGAANKKMSKVETLRSAVEYIRALQQLLDEHDAVSAAFQAGVLSPTISPNYSNDLNSMAGSPVSSYSSDEGSYDPLSPEEQELLDFTNWF
notes: The two Gal4 domains are alternatives: one fusion as bait (BD), another as prey (AD); also called Ascl1; MASH1-AD; source: yeast two-hybrid fusion
